Data from paper PMC5337904, “A novel cytochrome P450, CYP3201B1, is involved in (R)‐mandelonitrile biosynthesis in a cyanogenic millipede” (FEBS Open Bio, 2017).
Like-named read-outs stand apart in the source and are kept apart here.

Tests used:
Conditions in all cases: 50 nM enzyme, 2 mM NADPH, 50 mM potassium phosphate pH 6.5, 35 °C, 5 min, with yeast P450 reductase
[1] = biological target: CYP3201B1 (Chamberlinius hualienensis, UniProt A0A1J1DVP9)
[2] = system: Cc1cccc(CC#N)c1; assay: cells, lysate or membranes
[3] = system: Cc1ccccc1CC#N; assay: cells, lysate or membranes

Chain of CYP3201B1 (A0A1J1DVP9 1-501 limits assumed): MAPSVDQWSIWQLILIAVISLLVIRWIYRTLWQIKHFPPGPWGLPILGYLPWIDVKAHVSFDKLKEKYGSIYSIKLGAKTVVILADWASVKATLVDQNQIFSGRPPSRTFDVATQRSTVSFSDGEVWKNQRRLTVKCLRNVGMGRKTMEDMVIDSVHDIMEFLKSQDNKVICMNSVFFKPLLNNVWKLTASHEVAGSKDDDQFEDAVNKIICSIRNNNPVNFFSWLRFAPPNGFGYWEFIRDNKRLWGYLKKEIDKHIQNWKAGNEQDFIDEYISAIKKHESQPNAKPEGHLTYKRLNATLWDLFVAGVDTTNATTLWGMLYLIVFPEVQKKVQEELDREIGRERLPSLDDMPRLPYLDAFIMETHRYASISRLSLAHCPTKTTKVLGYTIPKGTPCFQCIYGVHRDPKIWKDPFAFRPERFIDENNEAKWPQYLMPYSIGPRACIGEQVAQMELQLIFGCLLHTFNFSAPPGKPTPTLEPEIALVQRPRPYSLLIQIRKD

N#CCc1ccc(O)cc1 [4‐HydroxyPAN]
Km [1]: 15.8 ± 1.2 µM

N#CCc1ccccc1 [PAN]
Km ([1]; product (R)-mandelonitrile): 9.2 ± 2.3 µM

CYP3201B1 (Chamberlinius hualienensis)
Km [2]: 6.9 ± 1.3 µM
kcat [2]: 1.09 ± 0.0433 s⁻¹
kcat/Km [2]: 158000 M⁻¹ s⁻¹
Km [3]: 6.6 ± 1.6 µM
kcat [3]: 1.12 ± 0.07 s⁻¹
kcat/Km [3]: 170000 M⁻¹ s⁻¹
